The labels stand for the following.
B1: FM9-1 + Fc_hole long-acting GDF15 fusion protein (dimer) (Fc fusion)
chain 1: APEAAGGPSVFLFPPKPKDTLMISRTPEVTCVVVDVSHEDPEVKFNWYVDGVEVHNAKTKPREEQYASTYRVVSVLTVLHQDWLNGKEYKCKVSNKALPAPIEKTISKAKGQPREPQVYTLPPSREEMTKNQVSLWCLVKGFYPSDIAVEWESNGQPENNYKTTPPVLDSDGSFFLYSKLTVDKSRWQQGNVFSCSVMHEALHNHYTQKSLSLSPGKGSGGGGSGGGGSGGGGSNGDHCPLGPGRCCRLHTVRASLEDLGWADWVLSPREVQVTMCIGACPSQFRAANMHAQIKTRLHRLKPDTVPAPCCVPASYNPMVLIQKTDTGVSLQTYDDLLAKDCHCI
chain 2: APEAAGGPSVFLFPPKPKDTLMISRTPEVTCVVVDVSHEDPEVKFNWYVDGVEVHNAKTKPREEQYASTYRVVSVLTVLHQDWLNGKEYKCKVSNKALPAPIEKTISKAKGQPREPQVYTLPPSREEMTKNQVSLSCAVKGFYPSDIAVEWESNGQPENNYKTTPPVLDSDGSFFLVSKLTVDKSRWQQGNVFSCSVMHEALHNHYTQKSLSLSPGK
B2: FM11-5 + Fc_hole long-acting GDF15 fusion protein (dimer) (Fc fusion)
chain 1: APEAAGGPSVFLFPPKPKDTLMISRTPEVTCVVVDVSHEDPEVKFNWYVDGVEVHNAKTKPREEQYASTYRVVSVLTVLHQDWLNGKEYKCKVSNKALPAPIEKTISKAKGQPREPQVYTLPPSREEMTKNQVSLWCLVKGFYPSDIAVEWESNGQPENNYKTTPPVLDSDGSFFLYSKLTVDKSRWQQGNVFSCSVMHEALHNHYTQKSLSLSPGKGSGGSSPTPTPTPTPTPTPTPTPTPTNSTCPLGPGRCCRLHTVRASLEDLGWADWVLSPREVQVTMCIGACPSQFRAANMHAQIKTRLHRLKPDTVPAPCCVPASYNPMVLIQKTDTGVSLQTYDDLLAKDCHCI
chain 2: B1 chain 2
B3: FM9-6 + Fc_hole long-acting GDF15 fusion protein (dimer) (Fc fusion)
chain 1: APEAAGGPSVFLFPPKPKDTLMISRTPEVTCVVVDVSHEDPEVKFNWYVDGVEVHNAKTKPREEQYASTYRVVSVLTVLHQDWLNGKEYKCKVSNKALPAPIEKTISKAKGQPREPQVYTLPPSREEMTKNQVSLWCLVKGFYPSDIAVEWESNGQPENNYKTTPPVLDSDGSFFLYSKLTVDKSRWQQGNVFSCSVMHEALHNHYTQKSLSLSPGKGSEAAAKEAAAKEAAAKEAAAKEAAAKNGDHCPLGPGRCCRLHTVRASLEDLGWADWVLSPREVQVTMCIGACPSQFRAANMHAQIKTRLHRLKPDTVPAPCCVPASYNPMVLIQKTDTGVSLQTYDDLLAKDCHCI
chain 2: B1 chain 2
B4: FM9-4 + Fc_hole long-acting GDF15 fusion protein (dimer) (Fc fusion)
chain 1: APEAAGGPSVFLFPPKPKDTLMISRTPEVTCVVVDVSHEDPEVKFNWYVDGVEVHNAKTKPREEQYASTYRVVSVLTVLHQDWLNGKEYKCKVSNKALPAPIEKTISKAKGQPREPQVYTLPPSREEMTKNQVSLWCLVKGFYPSDIAVEWESNGQPENNYKTTPPVLDSDGSFFLYSKLTVDKSRWQQGNVFSCSVMHEALHNHYTQKSLSLSPGKGSEEEAEEEAEEEAEEEAEEEAEEEANGDHCPLGPGRCCRLHTVRASLEDLGWADWVLSPREVQVTMCIGACPSQFRAANMHAQIKTRLHRLKPDTVPAPCCVPASYNPMVLIQKTDTGVSLQTYDDLLAKDCHCI
chain 2: B1 chain 2
B5: FM11-1 + Fc_hole long-acting GDF15 fusion protein (dimer) (Fc fusion)
chain 1: APEAAGGPSVFLFPPKPKDTLMISRTPEVTCVVVDVSHEDPEVKFNWYVDGVEVHNAKTKPREEQYASTYRVVSVLTVLHQDWLNGKEYKCKVSNKALPAPIEKTISKAKGQPREPQVYTLPPSREEMTKNQVSLWCLVKGFYPSDIAVEWESNGQPENNYKTTPPVLDSDGSFFLYSKLTVDKSRWQQGNVFSCSVMHEALHNHYTQKSLSLSPGKGSGGGGSGGGGSGGGGSNSTCPLGPGRCCRLHTVRASLEDLGWADWVLSPREVQVTMCIGACPSQFRAANMHAQIKTRLHRLKPDTVPAPCCVPASYNPMVLIQKTDTGVSLQTYDDLLAKDCHCI
chain 2: B1 chain 2
B6: FM11-2 + Fc_hole long-acting GDF15 fusion protein (dimer) (Fc fusion)
chain 1: APEAAGGPSVFLFPPKPKDTLMISRTPEVTCVVVDVSHEDPEVKFNWYVDGVEVHNAKTKPREEQYASTYRVVSVLTVLHQDWLNGKEYKCKVSNKALPAPIEKTISKAKGQPREPQVYTLPPSREEMTKNQVSLWCLVKGFYPSDIAVEWESNGQPENNYKTTPPVLDSDGSFFLYSKLTVDKSRWQQGNVFSCSVMHEALHNHYTQKSLSLSPGKGSGGGGSGGGGSGGGGSGGGGSGGGGSNSTCPLGPGRCCRLHTVRASLEDLGWADWVLSPREVQVTMCIGACPSQFRAANMHAQIKTRLHRLKPDTVPAPCCVPASYNPMVLIQKTDTGVSLQTYDDLLAKDCHCI
chain 2: B1 chain 2
B7: FM11-3 + Fc_hole long-acting GDF15 fusion protein (dimer) (Fc fusion)
chain 1: APEAAGGPSVFLFPPKPKDTLMISRTPEVTCVVVDVSHEDPEVKFNWYVDGVEVHNAKTKPREEQYASTYRVVSVLTVLHQDWLNGKEYKCKVSNKALPAPIEKTISKAKGQPREPQVYTLPPSREEMTKNQVSLWCLVKGFYPSDIAVEWESNGQPENNYKTTPPVLDSDGSFFLYSKLTVDKSRWQQGNVFSCSVMHEALHNHYTQKSLSLSPGKGSGGGGSGGGGSGGGGSGGGGSGGGGSGGGGSGGGGSNSTCPLGPGRCCRLHTVRASLEDLGWADWVLSPREVQVTMCIGACPSQFRAANMHAQIKTRLHRLKPDTVPAPCCVPASYNPMVLIQKTDTGVSLQTYDDLLAKDCHCI
chain 2: B1 chain 2
B8: FM9-2 + Fc_hole long-acting GDF15 fusion protein (dimer) (Fc fusion)
chain 1: APEAAGGPSVFLFPPKPKDTLMISRTPEVTCVVVDVSHEDPEVKFNWYVDGVEVHNAKTKPREEQYASTYRVVSVLTVLHQDWLNGKEYKCKVSNKALPAPIEKTISKAKGQPREPQVYTLPPSREEMTKNQVSLWCLVKGFYPSDIAVEWESNGQPENNYKTTPPVLDSDGSFFLYSKLTVDKSRWQQGNVFSCSVMHEALHNHYTQKSLSLSPGKGSGGGGSGGGGSGGGGSGGGGSGGGGSNGDHCPLGPGRCCRLHTVRASLEDLGWADWVLSPREVQVTMCIGACPSQFRAANMHAQIKTRLHRLKPDTVPAPCCVPASYNPMVLIQKTDTGVSLQTYDDLLAKDCHCI
chain 2: B1 chain 2
B9: FM11-6 + Fc_hole long-acting GDF15 fusion protein (dimer) (Fc fusion)
chain 1: APEAAGGPSVFLFPPKPKDTLMISRTPEVTCVVVDVSHEDPEVKFNWYVDGVEVHNAKTKPREEQYASTYRVVSVLTVLHQDWLNGKEYKCKVSNKALPAPIEKTISKAKGQPREPQVYTLPPSREEMTKNQVSLWCLVKGFYPSDIAVEWESNGQPENNYKTTPPVLDSDGSFFLYSKLTVDKSRWQQGNVFSCSVMHEALHNHYTQKSLSLSPGKGSEAAAKEAAAKEAAAKEAAAKEAAAKNSTCPLGPGRCCRLHTVRASLEDLGWADWVLSPREVQVTMCIGACPSQFRAANMHAQIKTRLHRLKPDTVPAPCCVPASYNPMVLIQKTDTGVSLQTYDDLLAKDCHCI
chain 2: B1 chain 2
B10: FM11-4 + Fc_hole long-acting GDF15 fusion protein (dimer) (Fc fusion)
chain 1: APEAAGGPSVFLFPPKPKDTLMISRTPEVTCVVVDVSHEDPEVKFNWYVDGVEVHNAKTKPREEQYASTYRVVSVLTVLHQDWLNGKEYKCKVSNKALPAPIEKTISKAKGQPREPQVYTLPPSREEMTKNQVSLWCLVKGFYPSDIAVEWESNGQPENNYKTTPPVLDSDGSFFLYSKLTVDKSRWQQGNVFSCSVMHEALHNHYTQKSLSLSPGKGSEEEAEEEAEEEAEEEAEEEAEEEANSTCPLGPGRCCRLHTVRASLEDLGWADWVLSPREVQVTMCIGACPSQFRAANMHAQIKTRLHRLKPDTVPAPCCVPASYNPMVLIQKTDTGVSLQTYDDLLAKDCHCI
chain 2: B1 chain 2
B11: FM9-3 + Fc_hole long-acting GDF15 fusion protein (dimer) (Fc fusion)
chain 1: APEAAGGPSVFLFPPKPKDTLMISRTPEVTCVVVDVSHEDPEVKFNWYVDGVEVHNAKTKPREEQYASTYRVVSVLTVLHQDWLNGKEYKCKVSNKALPAPIEKTISKAKGQPREPQVYTLPPSREEMTKNQVSLWCLVKGFYPSDIAVEWESNGQPENNYKTTPPVLDSDGSFFLYSKLTVDKSRWQQGNVFSCSVMHEALHNHYTQKSLSLSPGKGSGGGGSGGGGSGGGGSGGGGSGGGGSGGGGSGGGGSNGDHCPLGPGRCCRLHTVRASLEDLGWADWVLSPREVQVTMCIGACPSQFRAANMHAQIKTRLHRLKPDTVPAPCCVPASYNPMVLIQKTDTGVSLQTYDDLLAKDCHCI
chain 2: B1 chain 2
B12: FM9-5 + Fc_hole long-acting GDF15 fusion protein (dimer) (Fc fusion)
chain 1: APEAAGGPSVFLFPPKPKDTLMISRTPEVTCVVVDVSHEDPEVKFNWYVDGVEVHNAKTKPREEQYASTYRVVSVLTVLHQDWLNGKEYKCKVSNKALPAPIEKTISKAKGQPREPQVYTLPPSREEMTKNQVSLWCLVKGFYPSDIAVEWESNGQPENNYKTTPPVLDSDGSFFLYSKLTVDKSRWQQGNVFSCSVMHEALHNHYTQKSLSLSPGKGSGGSSPTPTPTPTPTPTPTPTPTPTNGDHCPLGPGRCCRLHTVRASLEDLGWADWVLSPREVQVTMCIGACPSQFRAANMHAQIKTRLHRLKPDTVPAPCCVPASYNPMVLIQKTDTGVSLQTYDDLLAKDCHCI
chain 2: B1 chain 2

This assay deals with GFRAL/RET overexpressed on HEK293 cells (GFRAL/RET/SRE-luc-overexpressing HEK293 cell line) (UniProt Q6UXV0 19-394; P07949 29-1114, limits assumed). Kind of assay: cell-based or functional assay.
Chain of GFRAL/RET overexpressed on HEK293 cells (GFRAL/RET/SRE-luc-overexpressing HEK293 cell line) (Q6UXV0 19-394 limits assumed, chain 1 of 2): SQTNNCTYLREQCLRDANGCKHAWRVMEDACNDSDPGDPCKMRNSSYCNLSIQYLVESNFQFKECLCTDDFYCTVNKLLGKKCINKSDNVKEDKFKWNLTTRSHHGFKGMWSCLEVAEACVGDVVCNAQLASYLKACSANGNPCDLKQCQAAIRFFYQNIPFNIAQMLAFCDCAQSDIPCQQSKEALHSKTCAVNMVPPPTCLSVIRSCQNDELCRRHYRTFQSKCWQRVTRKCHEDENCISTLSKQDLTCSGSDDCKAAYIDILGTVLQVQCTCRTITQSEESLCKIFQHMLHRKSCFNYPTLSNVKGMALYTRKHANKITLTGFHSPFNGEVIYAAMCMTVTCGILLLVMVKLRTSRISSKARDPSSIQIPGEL
Chain of GFRAL/RET overexpressed on HEK293 cells (GFRAL/RET/SRE-luc-overexpressing HEK293 cell line) (P07949 29-1114 limits assumed, chain 2 of 2): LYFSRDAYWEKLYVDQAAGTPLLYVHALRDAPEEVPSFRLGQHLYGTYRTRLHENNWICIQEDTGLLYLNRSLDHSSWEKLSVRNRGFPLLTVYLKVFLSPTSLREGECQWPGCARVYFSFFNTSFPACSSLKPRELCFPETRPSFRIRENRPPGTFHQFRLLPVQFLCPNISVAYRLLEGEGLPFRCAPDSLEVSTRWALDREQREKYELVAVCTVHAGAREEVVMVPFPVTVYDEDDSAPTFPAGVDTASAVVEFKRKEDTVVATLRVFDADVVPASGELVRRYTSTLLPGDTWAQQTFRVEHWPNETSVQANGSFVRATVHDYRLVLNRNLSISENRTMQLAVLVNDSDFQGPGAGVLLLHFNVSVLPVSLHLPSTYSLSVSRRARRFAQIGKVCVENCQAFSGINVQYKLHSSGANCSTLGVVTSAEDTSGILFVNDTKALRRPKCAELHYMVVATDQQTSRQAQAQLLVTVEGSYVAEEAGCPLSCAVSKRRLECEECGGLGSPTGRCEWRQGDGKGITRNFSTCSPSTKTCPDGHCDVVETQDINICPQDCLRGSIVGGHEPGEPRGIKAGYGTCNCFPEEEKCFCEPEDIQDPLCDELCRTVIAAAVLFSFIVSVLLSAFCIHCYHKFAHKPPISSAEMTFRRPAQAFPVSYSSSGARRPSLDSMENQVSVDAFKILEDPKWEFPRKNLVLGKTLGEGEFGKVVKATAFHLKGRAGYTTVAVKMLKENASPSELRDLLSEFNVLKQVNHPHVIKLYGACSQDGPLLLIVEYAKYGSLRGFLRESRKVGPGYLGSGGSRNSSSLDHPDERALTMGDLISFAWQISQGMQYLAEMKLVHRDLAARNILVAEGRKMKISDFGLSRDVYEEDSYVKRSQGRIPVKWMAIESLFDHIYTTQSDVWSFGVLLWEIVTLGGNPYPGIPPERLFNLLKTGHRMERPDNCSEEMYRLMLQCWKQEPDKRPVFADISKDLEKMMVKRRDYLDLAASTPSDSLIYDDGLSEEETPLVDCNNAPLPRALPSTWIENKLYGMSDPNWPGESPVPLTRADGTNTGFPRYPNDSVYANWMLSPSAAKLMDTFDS
As for B1, the “EC50 (nM), SRE-luciferase reporter (RLU)” value was determined as 9 nM and the “Emax (%), SRE-luciferase reporter (RLU), relative to FM9-6+Fc_hole” value (from here on “Emax (%) … relative to FM9-6+Fc_hole”) amounted to 97.6%.
On the same counts, the results for B2 are 5.1 nM and 68.2%.
As to B3, the “EC50 (nM), SRE-luciferase reporter (RLU)” value stood at 6.3 nM.
As to B4, the “EC50 (nM), SRE-luciferase reporter (RLU)” value amounted to 23.6 nM and the “Emax (%) … relative to FM9-6+Fc_hole” value turned out to be 128%.
In the case of B5, the “EC50 (nM), SRE-luciferase reporter (RLU)” value worked out at 9.7 nM and the “Emax (%) … relative to FM9-6+Fc_hole” value was 65.6%.
On the same counts, the results for B6 are 7.7 nM and 79.4%.
Taken in the same sequence, the figures for B7 were 7.8 nM and 81%.
Consider B8, for which the “EC50 (nM), SRE-luciferase reporter (RLU)” value was determined as 9.5 nM and the “Emax (%) … relative to FM9-6+Fc_hole” value was determined as 111%.
On to B9, for which the “EC50 (nM), SRE-luciferase reporter (RLU)” value was found to be 6.8 nM and the “Emax (%) … relative to FM9-6+Fc_hole” value worked out at 80.3%.
On the same counts, the results for B10 are 45.4 nM and 105%.
Take B11: the “EC50 (nM), SRE-luciferase reporter (RLU)” value is 9.3 nM and the “Emax (%) … relative to FM9-6+Fc_hole” value was 95.6%.
For the molecule B12, the “EC50 (nM), SRE-luciferase reporter (RLU)” value turned out to be 5.3 nM and the “Emax (%) … relative to FM9-6+Fc_hole” value came to 100%.

Source of the values: US20240238380A1 (YUHAN, published 2024).
